The nature of the data set: total protein half-life in vivo (active degradation + dilution); higher = more stable protein.
Setting [1] is: E. coli NCM3722 delta-clpP delta-lon delta-hslV, growth: N-lim chemostat, doubling time 6 h.
Setting [2] is: E. coli NCM3722 delta-clpP, growth: N-lim chemostat, doubling time 6 h.
[3] abbreviates: E. coli NCM3722 delta-lon, growth: N-lim chemostat, doubling time 6 h.
Setting [4] is: E. coli NCM3722 delta-smpB, growth: N-lim chemostat, doubling time 6 h.
The mark [5] stands for this setting: wild type E. coli NCM3722, growth: C-lim chemostat, doubling time 3 h.
Where [6] appears, read: wild type E. coli NCM3722, growth: C-lim chemostat, doubling time 6 h.
Where [7] appears, read: wild type E. coli NCM3722, growth: C-lim chemostat, doubling time 12 h.
The mark [8] stands for this setting: wild type E. coli NCM3722, growth: N-lim chemostat, doubling time 6 h.
[9] abbreviates: wild type E. coli NCM3722, growth: N-lim chemostat, doubling time 12 h.
Setting [10] is: wild type E. coli NCM3722, growth: P-lim chemostat, doubling time 6 h.
The mark [11] stands for this setting: wild type E. coli NCM3722, growth: P-lim chemostat, doubling time 12 h.

± gives the standard deviation of the averaged measurements.

From the supplement of paper PMC11246515 come the findings set out here.

Regarding “MLNETPALAPDGQPYRLLTLRNNAGMVVTLMDWGATLLSARIPLSDGSVREALLGCASPECYQDQAAFLGASIGRYANRIANSRYTFDGETVTLSPSQGVNQLHGGPEGFDKRRWQIVNQNDRQVLFALSSDDGDQGFPGNLGATVQYRLTDDNRISITYRATVDKPCPVNMTNHVYFNLDGEQSDVRNHKLQILADEYLPVDEGGIPHDGLKSVAGTSFDFRSAKIIASEFLADDDQRKVKGYDHAFLLQAKGDGKKVAAHVWSADEKLQLKVYTTAPALQFYSGNFLGGTPSRGTEPYADWQGLALESEFLPDSPNHPEWPQPDCFLRPGEEYSSLTEYQFIAE [P0A9C3]”, the “total protein half-life in vivo” value runs as follows: under setting [1], 5.1 ± 0.083 h; under setting [2], 4.67 ± 0.097 h; under setting [3], 4.63 ± 0.11 h; under setting [4], 4.275 ± 0.041 h; under setting [5], 3.16 ± 0.33 h; under setting [6], 6.76 ± 0.95 h. For the same sequence, the “total protein half-life in vivo” value by setting is: under setting [7], 12.3 ± 1.5 h; under setting [8], 4.71 ± 0.91 h; under setting [9], 7.76 ± 0.98 h; under setting [10], 6.38 ± 0.48 h.
As to “MESWLIPAAPVTVVEEIKKSRFITMLAHTDGVEAAKAFVESVRAEHPDARHHCVAWVAGAPDDSQQLGFSDDGEPAGTAGKPMLAQLMGSGVGEITAVVVRYYGGILLGTGGLVKAYGGGVNQALRQLTTQRKTPLTEYTLQCEYHQLTGIEALLGQCDGKIINSDYQAFVLLRVALPAAKVAEFSAKLADFSRGSLQLLAIEE”, the “total protein half-life in vivo” value under setting [1] was 5.13 h; the “total protein half-life in vivo” value under setting [2] was found to be 3.99 ± 0.14 h; the “total protein half-life in vivo” value under setting [3] was determined as 3.84 ± 0.059 h; the “total protein half-life in vivo” value under setting [4] is 2.87 ± 0.15 h; the “total protein half-life in vivo” value under setting [5] came out at 2.93 ± 0.19 h; the “total protein half-life in vivo” value under setting [6] was determined as 4.62 ± 0.11 h. The “total protein half-life in vivo” value is, setting by setting: under setting [7], 15 h; under setting [8], 3.48 ± 0.22 h; under setting [9], 4.67 ± 0.14 h; under setting [10], 4.78 h; under setting [11], 7.73 ± 0.15 h.
In the case of “MDSARALIARGWGVSLVSRCLRVSRAQLHVILRRTDDWMDGRRSRHTDDTDVLLRIHHVIGELPTYGYRRVWALLRRQAELDGMPAINAKRVYRIMRQNALLLERKPAVPPSKRAHTGRVAVKESNQRWCSDGFEFCCDNGERLRVTFALDCCDREALHWAVTTGGFNSETVQDVMLGAVERRFGNDLPSSPVEWLTDNGSCYRANETRQFARMLGLEPKNTAVRSPESNGIAESFVKTIKRDYISIMPKPDGLTAAKNLAEAFEHYNEWHPHSALGYRSPREYLRQRACNGLSDNRCLEI [P0CF53]”, the “total protein half-life in vivo” value under setting [1] turned out to be 5.39 ± 1.7 h.
Take “MSFDPTGYTLAHEHLHIDLSGFKNNVDCRLDQYAFICQEMNDLMTRGVRNVIEMTNRYMGRNAQFMLDVMRETGINVVACTGYYQDAFFPEHVATRSVQELAQEMVDEIEQGIDGTELKAGIIAEIGTSEGKITPLEEKVFIAAALAHNQTGRPISTHTSFSTMGLEQLALLQAHGVDLSRVTVGHCDLKDNLDNILKMIDLGAYVQFDTIGKNSYYPDEKRIAMLHALRDRGLLNRVMLSMDITRRSHLKANGGYGYDYLLTTFIPQLRQSGFSQADVDVMLRENPSQFFQ”: the “total protein half-life in vivo” value worked out at 4.42 h under setting [1]; 6.12 h under setting [3]; 3.08 ± 0.51 h under setting [4]; 9.94 h under setting [7]; 4.97 h under setting [8]; 15.1 h under setting [11].
With “MRADKSLSPFEIRVYRHYRIVHGTRVALAFLLTFLIIRLFTIPESTWPLVTMVVIMGPISFWGNVVPRAFERIGGTVLGSILGLIALQLELISLPLMLVWCAAAMFLCGWLALGKKPYQGLLIGVTLAIVVGSPTGEIDTALWRSGDVILGSLLAMLFTGIWPQRAFIHWRIQLAKSLTEYNRVYQSAFSPNLLERPRLESHLQKLLTDAVKMRGLIAPASKETRIPKSIYEGIQTINRNLVCMLELQINAYWATRPSHFVLLNAQKLRDTQHMMQQILLSLVHALYEGNPQPVFANTEKLNDAVEELRQLLNNHHDLKVVETPIYGYVWLNMETAHQLELLSNLICRALRK”, the “total protein half-life in vivo” value runs as follows: under setting [1], 6.005 ± 0.0077 h; (E. coli NCM3722 delta-hslV, growth: N-lim chemostat, doubling time 6 h) 5.415 ± 0.036 h; under setting [3], 6.43 ± 0.51 h; under setting [4], 5.53 ± 1.8 h; under setting [5], 3.27 ± 0.35 h; under setting [6], 5.4 ± 0.19 h. Moreover, the “total protein half-life in vivo” value was 11.5 ± 0.28 h under setting [7]; 5.61 ± 0.075 h under setting [8]; 7.75 ± 6 h under setting [9]; 4.76 ± 2.1 h under setting [10]; 10.6 ± 3.9 h under setting [11].
